Laboratory results as given in the supplement of paper PMC9170038.

Assays:
[1] = test system: MS2 coat protein; test: apparent KD of MS2 coat protein; higher = weaker reporter binding; conditions: Eterna round: R107
Procedure: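 RNA-MaP round R107: designed RNA switches with theophylline, tryptophan, arginine or FMN aptamers are transcribed on-chip within common flanks. They are titrated with SNAP-549-labelled MS2 coat protein in RNA-MaP buffer (100 mM Tris pH 7.5, 80 mM KCl, 4 mM MgCl2), without ligand or with the indicated ligand. Median apparent KD per design.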

[2] = test system: K4 kissing-loop RNA reporter; test: apparent KD of K4 kissing-loop reporter; higher = weaker reporter binding; conditions: Eterna round: R107;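 further: bound reporter read as fluorescence of individual clusters on recovered sequencing chips by microscopy, with normalized cluster intensities fitted with a binding model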
Procedure: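 RNA-MaP round R107: designed RNA switches with theophylline, tryptophan, arginine or FMN aptamers are transcribed on-chip within common flanks. They are titrated with a labelled K4 kissing-loop RNA reporter in RNA-MaP buffer (100 mM Tris pH 7.5, 80 mM KCl, 4 mM MgCl2), without ligand or with the indicated ligand. Median apparent KD per design.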

[3] = input ligand: theophylline 20 uM
[4] = input ligand: theophylline 2 mM
[5] = input ligand: tryptophan 2.4 mM

Sequence | apparent KD of MS2 coat protein ([1]; input ligand: arginine 13.2 mM) | apparent KD of MS2 coat protein ([1]; input ligand: none) | apparent KD of MS2 coat protein [1, 3] | apparent KD of MS2 coat protein [1, 4] | apparent KD of MS2 coat protein [1, 5] | apparent KD of K4 kissing-loop reporter ([2]; input ligand: FMN 200 uM) | apparent KD of K4 kissing-loop reporter ([2]; input ligand: arginine 13.2 mM) | apparent KD of K4 kissing-loop reporter ([2]; input ligand: none) | apparent KD of K4 kissing-loop reporter [2, 3] | apparent KD of K4 kissing-loop reporter [2, 5]
UUGUUAUACGGAAGGAGCGUGUAAGAUUAAGAACAUGAGGAUCACCCAUGUUUUAAGGGAACACAGGUAGGUCGCCGUAUAGUGG [11.P] | 16.4 nM | 10 nM | 13.2 nM | 11.3 nM | 14.7 nM | – | – | – | – | –
UGACAUUGCUCAGAUACCAGACAUGAGGAUCACCCAUGUACCAAGAAAACGUACAAUAAUGUCCCUUGGCAGCUGAGCAAUGUCU [TheoBX 9 #MS2Left #Theo2] | 64.8 nM | – | 180 nM | – | 93.6 nM | – | – | – | – | –
AGUACACGAACUGAUACCAGCCGGACAUGAGGAUCACCCAUGUCCUACCUCUGUUCGGUUGGCCCUUGGCAGCAGUUCGUGUACA [Omei Theo B SS A v9] | 40.5 nM | – | 391 nM | – | 76.2 nM | – | – | – | – | –
AAAUAAUAUUAAUUAAUUAUAUUAUUCUGACGAGGACCGGUACGGCCGCCACUCGGCCCAUGGUACAUGAGGAUCACCCAUGUCU [Same State - Tryptophan A] | 17 nM | – | 17.2 nM | 18.9 nM | – | – | – | – | – | –
CAAGAAUGACGUACAGAUAACAAUAACGAUACCAGUACAUCAUUAUACCCUUGGCAGCGUUUCACAUGAGGAUCACCCAUGUACA [theeternabot_exclusion_MS2_Theo_A_14] | 15.4 nM | – | 20.1 nM | – | 17.6 nM | – | – | – | – | –
AGCUGGGAUCCUCAGCGUCAAAGACGCAGUCGAGGACCGGUACGGCCGCCACUCGACACGAGGAUCACCCGUGUCAUUCCCAGCA [TrypAX 1 #SwitchBubble #AlternativeMS2 #MS2Late #CuTurnoff] | 34.5 nM | – | 387 nM | 584 nM | 1460 nM | – | – | – | – | –
ACAUGAGGAUCACCCAUGUAAUUAACAGAAGGAGCGUGAUGGAUCACAGGUAGGUCGCUGUACUUAGAAAUAACUCUCAUGAAUA [JR_Nu_SSArginiA_Sub024] | 15.2 nM | 18.2 nM | 27.6 nM | 16.6 nM | 17.1 nM | – | – | – | – | –
AUAACAUGAGGAUCACCCAUGUAAGCUGAAGGAGCGGACGAAAGUCCAGGUAGGUCGCAGCGCUCCUUCACCUCAUGAGAAGGAG [(M1)-(M2)-(Arg1)-(Arg2)-(A)'-(M)'-(A)''_Design2] | 23.4 nM | 23 nM | 31.4 nM | 25.3 nM | 22.4 nM | – | – | – | – | –
AGACAUGAGGAUCACCCAUGUAGCAUGGAUACCAGAUGUAGAUUAGUCCCUUGGCAGCUGUGGUGAAGUGAUGCAUUGCUCCUAG [Exclusion - Theophylline A (Freestyle 2)] | 29.9 nM | – | 74.3 nM | – | 50.1 nM | – | – | – | – | –
UCGCAUUGCUCAGAUACCAGACAUGAGGAUCACCCAUGUACCAAGGUACCCGAAAGGAAUGUCCCUUGGCAGCUGAGCAAUGCGU [MAT - Exclusion Theophlline B - Mod of Eli - D19] | 10.5 nM | – | 14 nM | – | 10.4 nM | – | – | – | – | –
GAUUCGCAGUCGGCCGCCACUAACAUGAGCUGCUAGUUAUUAUCACAUGAGGAUCACCCAUGUCUUAGGACCGGGACAACCUGUU [theeternabot_sameState_MS2_Trp_B_26] | 48.3 nM | – | 79.1 nM | 85.3 nM | – | – | – | – | – | –
UGUAACAUGAGGAUCACCCAUGUGAGUGAUACCAGACUAGUGUUGGUCCCUUGGCAGCACGCUGGGCGAGUGUGUAGUCUAUGCG [Same State - Theophylline A (Freestyle 17)] | 64.5 nM | – | 100 nM | – | 80.5 nM | – | – | – | – | –
CACGAAAGAUCGGCCGCCACUAAUCUAUGUGUACUAGCACAUGAGGAUCACCCAUGUUCUUGCGUUAGGACCGGGAUUGAGCGUG [#03 Exclusion Tryptophan B] | 23.4 nM | – | 27.6 nM | 24 nM | – | – | – | – | – | –
UCGCUCGCCGUAAGGCGAGCGAGUUGCGAUACCAGCCCGGAAACGGGCCCUUGGCAGCGCACAUGAGGAUCACCCAUGUCAUGUU [#1 Exclusion - Theophylline A Attempt #5 (HarryS)] | 18.3 nM | 19.5 nM | 35.1 nM | 24.3 nM | 19.7 nM | – | – | – | – | –
GACGGGCAGUGAUGUUGCCGGUCUCUUGGACGAGGACCGGUACGGCCGCCACUCGAUCUGAUGCGGGAAUUGCAUCUUUUAAUAA [Raorbirabe] | – | – | – | – | – | 237 nM | 115 nM | 185 nM | 194 nM | 333 nM
UGAUACCAGACUGAUACCAGCCAGUGAUGUUGGCUAAGCCGAAGAGGUGUCAUAGACACCGGCCCUUGGCAGCAGUCUGGUAUCU [#07 K4 Theophylline B Exclusion] | – | – | – | – | – | 120 nM | 110 nM | 120 nM | 108 nM | 117 nM
AAGUGAUGUUGUAGUGAUGUUGUGAUGUUGCAGGAUAUAUAGUGAUGUAGAAGGGUAUGUGCAGUUUUAUUUUUUGAGUGUUGAU [ttytmullin] | – | – | – | – | – | 72.1 nM | 31 nM | 54.8 nM | 42.2 nM | 58.1 nM
UGACUGGACUGAAGGAGCGCUAAAACUCCUAGUGAUGUUGGGAAAUAAGAGACAAAGUCUCAGCAGGUAGGUCGCAGUCUAGUCU [ArgBS 24 #SwitchBubble #StaticStem] | – | – | – | – | – | 481 nM | 462 nM | 503 nM | 657 nM | 526 nM
UGAUAGGACAGAAGGAGCGGAAGUGAUGUUUCCAAAAGGUAAAGGUGUCAAAAGACACCCUUCCAGGUAGGUCGCUGUCCUAUCU [ArgBX 12 #Palindromic #SwitchBubble #StaticStem] | – | – | – | – | – | 119 nM | 124 nM | 113 nM | 126 nM | 103 nM
UUGGAUUGAUGAGAGUUGAUUUGGUAGGAAGGAGCGGCCGAAAGGCCAGGUAGGUCGCCUAUUGACAGUGAUGUUGUUAUAUGGU [#16] | – | – | – | – | – | 215 nM | 228 nM | 237 nM | 489 nM | 226 nM
